Assay: label from the status in PepcDB records

Sequence | protein production
MARPSGPATMRTTDGGPMRDIDWLLTDAHALRERGELDPARALYDEALEKARATGETEGLAKALRHVSDMDREAGRLEAALAAAEEAATLYGALGREHRLDLANALRLTALALEALGRPALQPWREAGDLYAELDIAAGLAEAERHLGLVVRPAQSVELEPLARLWWQGWRDAHLPIVPEALARLRTLESFTTRMAAALPQVRVLGPVGAPIGLHLIKDDELNQLYLAAEARGAGFAAVLMADAEAHLADAGVRKAWLACAIGNDRAARFYEKSGWTRARAEIVPTETPAGPFPLEVWRYEKVLTRSEPQTL | failed
MARREICNKGVVAGVQYSHSHRQSKRTWAPNIKKVKAIVKGTPKTVHVCTRCLRSEKFKELYKKSLAKMQFNNCIFILHKNKGLEHHHHHH | not failed
MARSKVKNLLLLKQIHSAVSQIKKGKLDKALETLDKAETSARQSKSTDALYYILFTRGGILYSAKEYDQALEAYEKALEAGSDLLKTDPENADYQHYMGTTLSNTGNLLKKKSEIDKADEYYSQARKIYFDLIKKDPQNAVYQSYAGENLNNYGELLMESGSLEKACEILREAIEIYEKLYKEKPDNLGYQAELSVALSQLGGCLKHQVPEESGAAKEKLEKALELQESLLDQQPENEKVKEAIALTEERLKGL | failed
MARTLFLEEGPMFFEKIAPYTYRIPRQGKMRVDAVFFASKEILKDLEAENYASLQQLMNVATLPGIVEPALAMPDIHWGYGFPIGGVAAFDPEEGGVVSPGGVGFDINCGVRLLASHLTLEDLLPRQKELADALYRLVPSGVGSERRDVRFSKRELKEILKEGAGWLVKRGYGYPEDVRFIESQGRLPWANPDKVSERAFERGAPQIGTLGSGNHFLEVQYVDEVYDEEAALAFGLFKGQVTVLIHTGSRGLGHQVCQDYVERFLKVAPRYGIELVDKQLAAAPIKSPEGQDYLQAMAAAANFAFANRQLIAHFVREAFEKVGFTPRDHGLRVLYDLAHNNAKFEEHRGRRVLVHRKGATRAFGPGHPEVPEEYRRVGQPVLVPGDMGRYSYVLAGTEKAMEVSFGSSCHGAGRKMSRHQAKKVARERNLVKELAERGILVRAATRATVDEEMPEAYKDVSLVVEAVEGAGIGKKVARLRPLIVVKG | not failed
MARVVVDAQAARAIGKGAMIVFKKGVVRVEGDIKPGDIVEVYTRGGKFLGKGFANPNSNIMVRIVTKDKDVEINKDLFKRRIKKANEYRKKVLKYTNVYRMVYGEADYLPGLIVDRFNDIASLQISSAGMERFKLDVAEAIMEVEPGIETVFEKNTGRSRRREGLPEIERVLLGKEKYRTIIQEGRAKFIVDMRGQKTGFFLDQRENRLALEKWVQPGDRVLDVFTYTGGFAIHAAIAGADEVIGIDKSPRAIETAKENAKLNGVEDRMKFIVGSAFEEMEKLQKKGEKFDIVVLDPPAFVQHEKDLKAGLRAYFNVNFAGLNLVKDGGILVTCSCSQHVDLQMFKDMIIAAGAKAGKFLKMLEPYRTQAPDHPILMASKDTEYLKCLFLYVEDMR | not failed
MARYLVVAHRTAKSPELAAKLKELLAQDPEARFVLLVPAVPPPGWVYEENEVRRRAEEEAAAAKRALEAQGIPVEEAKAGDISPLLAIEEELLAHPGAYQAIVLSTLPPGPSRWLRLDVHTQAERFGLPVIHVIAQAA | not failed
MASDSGNQGTLCTLEFAVQMTCQSCVDAVRKSLQGVAGVQDVEVHLEDQMVLVHTTLPSQEVQALLEGTGRQAVLKGMGSGQLQN | not failed
MASEQEKTADFGFRTVAKDEKEVMVAEVFHSVAAKYDLMNDLMSFGIHRIWKRFTIECSGVRRNQRVLDLAGGTGDLTAKFSRMVGEGGEVILADINASMLKVGREKLRNKGIIDNINYVQANAEALPFPDDFFDCITISFGLRNVTDKNKALRSMYRVLKPGGRLLVLEFSKPVIKQLSTIYDAYSFHILPRIGEAVASDAGSYRYLAESIRMHPDQETLKGMMSDAGFDSVNYFNLTGGIVALHRGFKFLEHHHHHH | failed
MASFYWRIKNEPYQVVECAMRALHFSSRHNKDIALVNLANVLHRAHFPADAAVVVHAALDDSDFFTSYYTLGNIYAMLGEYNHSVLCYDHALQARPGFEQAIKRKHAVLCQQKLEQKLEAQHRSLQRTLNELKEYQKQHDHYLRQQEILEKHKLIQEEQILRNIIHETQMAKEAQLGNHQICRLVNQQHSLHCQWDQPVRYHRGDIFENVDYVQFGEDSSTSSMMSVNFDVQSNQSDINDSVKSSPVAHSILWIWGRDSDAYRDKQHILWPKRADCTESYPRVPVGGELPTYFLPPENKGLRIHELSSDDYSTEEEAQTPDCSITDFRKSHTLSYLVKELEVRMDLKAKMPDDHARKILLSRINNYTIPEEEIGSFLFHAINKPNAPIWLILNEAGLYWRAVGNSTFAIACLQRALNLAPLQYQDVPLVNLANLLIHYGLHLDATKLLLQALAINSSEPLTFLSLGNAYLALKNISGALEAFRQALKLTTKCPECENSLKLIRCMQFYPFLYNITSSVCSGNCHEKTLDNSHDKQKYFDNSQSLDAAEEEPSERGTEEDPVFSVENSGRDSDALRLESTVVEESNGSDEMENSDETKMSEEILALVDEFQQAWPLEGFGGALEMKGRRLDLQGIRVLKKGPRDGVARSSCYGDCRSEDDEATEWITFQVKRVKKPKGDHKKTPGKKVETGQIENGHRYQANLEITGPKVASPGPQGLLDWKTRKVP | failed
MASGQFVNKLQEEVICPICLDILQKPVTIDCGHNFCLKCITQIGETSCGFFKCPLCKTSVRKNAIR | not failed
MASGSTQVKYLGIYQKMKQQILDGEYKINEKIPSSPVLAEEFDVSVLTIKKALDLLVRDGYIIRRRGSGTVVQDWRQQEKARMIQTLTGTKAVYGSEVESKIIEFTIVGADEIIAEKLGISVGDFVYKIIRLRIIHSIPTIMEHTWMPISVIPGVEVSVLEESIYSHIQNKLGLQVGTSVVRVKGIRPDDKEKQFMNLTNQDFLMRVEQVAYLTDGRTFEYSYADHLPETFEFETVITAKSYKEA | not failed
MASKMDTETHYSDVWVVIPAFNEAAVIGKVVTDVRSVFDHVVCVDDGSTDGTGDIARRSGAHLVRHPINLGQGAAIQTGIEYARKQPGAQVFATFDGDGQHRVKDVAAMVDRLGAGDVDVVIGTRFGRPVGKASASRPPLMKRIVLQTGARLSRRGRRLGLTDTNNGLRVFNKTVADGLNITMSGMSHATEFIMLIAENHWRVAEEPVEVLYTEYSKSKGQPLLNGVNIIFDGFLRGRMPR | failed
MASKPEKRVASSVFITLAPPRRDVAVSEEVGQAACEARRARPWEMLPTKTPGAAVGRSPKTWTPSGKTNASLSGVTPQLSNGGCSLPPPSLNEEDLDLPPPPPPPSAYLPLPEEEPPVLPGKSLISDLEQLHLPPPPPPPPPQAPSKGSSVHPPPGHAIPSEEELPPPPEEPVTLPEREVSTDVCGFCHKPVSPRELAVEAMKRQYHAQCFTCRTCRRQLAGQRFYQKDGRPLCEPCYQDTLEKCGKCGEVVQEHVIRALGKAFHPPCFTCVTCARCISDESFALDSQNQVYCVADFYRKFAPVCSICENPIIPRDGKDAFKIECMGRNFHENCYRCEDCSVLLSVEPTDQGCYPLNDHLFCKPCHLKRSAAGCC | failed
MASKSQKKVLKKQNKKKKKDPLAPKRALSAYMFYVKDKRLEIIKEKPELAKDVAQVGKLIGEAWGQLSPAQKAPYEKKAQLDKVRYSKEIEEYRKKNQE | failed
MASLEVSRSPRRSRRELEVRSPRQNKYSVLLPTYNERENLPLIVWLLVKSFSESGINYEIIIIDDGSPDGTRDVAEQLEKIYGSDRILLRPREKKLGLGTAYIHGMKHATGNYIIIMDADLSHHPKFIPEFIRKQKEGNFDIVSGTRYKGNGGVYGWDLKRKIISRGANFLTQILLRPGASDLTGSFRLYRKEVLEKLIEKCVSKGYVFQMEMIVRARQLNYTIGEVPISFVDRVYGESKLGGNEIVSFLKGLLTLFATT | failed
MASLRVACVIPTYNGRKDLERLLDSLATQTASFDTLIVDSSSSDGTLELAQARCANVLRIDSKDFNHGGTRQMMVDVHPDYDVYVYMTQDAYVEDIDAIANILLPFADPKVGAVCGRQLPHKNANLLAQHARLFNYPPTSQIKTLADAGTLGIKTPFMSNSFAAYRGEALRAIGGFPRHVILSEDMYVTAKMLIDGWKVAYEGSAVCRHSHNYSLREEFCRYFDIGVFQSREAWIYETFGGIGGEGMRYVKSELKFLGPRRLLWWPMSFVRNALKLLAYKLSKQEKRLPRGLKKKLGMYKRYWDSPYA | failed
MASLVAYDDSDPESEADPARSGDAAGQMSDVSGISRPEVEFASSTGVTKEGAQHTGNSPYEDPGKQRLPLARLWRSDPGSCPSQRLQWPSKEPDSTFPTSEPPGPSLWMNRAPVGHVPLAAACFKPLKPAWDAFTPSHTHSKLESTAGNASSSQRKRGEACVLPYIPKRLRQLQVLNPEATGGRDVEPPGSPAGCAPAPLCVAPTVSEFIQPYLNSQYRETTVPKKVLFHLRGHRGPVNSIQWCPVFSKSHMLLSASMDKTFKVWNAVDSGHCLQTYSVHSEAVRAARWSPCGRRILSGGFDFALHLTDLETGTQVFSGHSDFRVTTLKFHPKDHNVFLCGGFSSEIKAWDMRTGKVVKGYKATIQQTLDILFLQEGSEFLSSTDASTRDSADRTIIAWDFRTAAKISNQIFHERYTCPSLALHPREPVFLAQTNGNYLALFSSVWPYRMSRRRRYEGHKVEGYAVGCECSPCGDLLVTGSADGRVLMFSFRTASRACTLQGHTQACLGTTYHPVLPSVLGTCSWGGDIKIWH | failed
MASPAAGDVLIVGSGLVGRSWAMLFASGGFRVKLYDIEPRQITGALENIRKEMKSLQQSGSLKGSLSAEEQLSLISSCTNLAEAVEGVVHIQECVPENLDLKRKIFAQLDSIVDDRVVLSSSSSCLLPSKLFTGLAHVKQCIVAHPVNPPYYIPLVELVPHPETSPATVDRTHALMRKIGQSPVRVLKEIDGFVLNRLQYAIISEAWRLVEEGIVSPSDLDLVMSDGLGMRYAFIGPLETMHLNAEGMLSYSDRYSEGMKRVLKSFGSIPEFSGATVEKVNQAMCKKGPADPEHLAARREWRDECLKRELAKLKRQMQPQ | not failed
MASPLYPSVLNNPLSSIVVTRDEFNAFHTIDRTLFSRLVFNLNRDVDQSFLAMCFLLFLEQSSYARDIIAYLVSLPNAFVDAVANEIGVCINLLYNVEFASTFFAADNDDNSMIPLLLRITGGKFTLRLINQQRKNFCAGVTKSWTDVCTRAFSDLCETAHRINREKQLALEREKFIEDMKKLRLSLQQEKSNRLSVQQVKIASPPPPRPHPPVEDETEKALREKETMEVKEKEGVLAADDRTVFLTFSKGYPISEAEVRVYFTRRFGEVIEAVEMQEVEANEQPLFAKMVMKLQCASMMDEIVSARFRNKFTIDGKHVWARKYVRKNPYPASSSTHF | failed
MASREVSITRISPLATFRVALAMSIIGLVAWIICVTVLYFGLNVAGVWQNFNDVIGGVGAEQTITFGLVLSISALLGAIGAITVAVLAPLCAIIYNSIVDLFGGLQIQLQEEVD | failed
MASSLITSAVIVVVLSLVLGSVEQVSGLRHVPKSPKTTDVKHPDFLVTIEPKPTILIPGVGRFLLPPKCKKPFYPYNPVTGAPLTGGGIPSYNGGQGAGPHTQLPGGDDTLVPNPGFEAPTPTIGAGTGSNGQVPPVPLP | failed
MASSPRPTEQTKQFFQQWQTYQQLVDHNYMAHRQIHQAVGALIQQQFDRPFDFLDLGCGDAQAIAKTLTGSKINSYTGVDLSPNALALAQKNLDPFRQVELRETDFLTYLGEANQTAPASFDLIHVGFSLHHLLPEEKEQFFAHCFSLLRPGGCLVIYDVFRQPEQNRQQYIEAYLAKAESQWTALAPDQLQAIAAHIKECDFPELVATMAEIGQKVGFIPPQVLFTEPRGFHHCFAFAISQSGKALAQDGV | failed

Reference: a protein production outcome set (Wang et al. 2014)
